{"source": "paper doi:10.1101/2024.05.10.593535", "about": "“Single residue changes to the histone core catalyze neofunctionalization and impose fitness trade-offs” (bioRxiv, 2024)", "binders": {"B1": {"name": "S. pombe Pht1 (H2A.Z), full-length N-terminal GST fusion (natural protein)", "chain": "not shown", "notes": "histone H2A.Z (Pht1), S. pombe, full length; also called full-length Pht1"}}, "target": "T1, S. pombe 14xHis-Spt6(282-1159) (S. pombe, UniProt Q09915 282-1159)", "T1 construct": "transcription elongation factor Spt6, S. pombe, truncated version corresponding to residues 282-1159; Held on Ni-NTA resin by the 14xHis tag in the pulldowns; also called PZH_670; source: E. coli BL21(DE3), purified (Ni Sepharose, dialysis)", "T1 sequence (looked up)": "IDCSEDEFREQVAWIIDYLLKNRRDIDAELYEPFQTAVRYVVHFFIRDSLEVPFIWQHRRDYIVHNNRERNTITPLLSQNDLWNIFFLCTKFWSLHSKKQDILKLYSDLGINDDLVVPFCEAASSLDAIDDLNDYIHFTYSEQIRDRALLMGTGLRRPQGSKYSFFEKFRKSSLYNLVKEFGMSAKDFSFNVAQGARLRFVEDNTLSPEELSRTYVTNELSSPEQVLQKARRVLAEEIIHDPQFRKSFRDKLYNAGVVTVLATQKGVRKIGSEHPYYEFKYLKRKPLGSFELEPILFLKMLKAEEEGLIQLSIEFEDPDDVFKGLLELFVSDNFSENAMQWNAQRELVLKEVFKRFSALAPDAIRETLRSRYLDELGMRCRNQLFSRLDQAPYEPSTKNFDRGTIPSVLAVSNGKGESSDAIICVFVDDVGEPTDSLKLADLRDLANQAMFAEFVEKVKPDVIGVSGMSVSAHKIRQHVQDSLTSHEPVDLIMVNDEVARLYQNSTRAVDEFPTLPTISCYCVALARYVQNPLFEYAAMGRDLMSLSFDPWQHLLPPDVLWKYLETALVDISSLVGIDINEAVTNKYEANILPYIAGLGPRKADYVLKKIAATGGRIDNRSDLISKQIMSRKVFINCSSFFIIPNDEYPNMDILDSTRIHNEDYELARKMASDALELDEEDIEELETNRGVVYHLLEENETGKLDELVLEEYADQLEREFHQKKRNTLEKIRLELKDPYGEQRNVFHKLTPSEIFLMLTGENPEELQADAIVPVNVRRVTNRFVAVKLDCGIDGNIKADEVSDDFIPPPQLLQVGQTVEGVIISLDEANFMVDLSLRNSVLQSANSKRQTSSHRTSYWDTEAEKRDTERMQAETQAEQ", "assay": "pull-down; 14xHis-Spt6(282-1159) bound to Ni-NTA resin as bait, recombinant histone fusion as prey; 50 mM Tris pH 8, 150 mM NaCl, 2.5 mM DTT, 0.1% tween-20, RT; washing under physiological salt (150 mM NaCl) or stringent (300 mM NaCl) conditions; colloidal Coomassie staining", "conditions": "both partners purified"}
{"binder": "B1", "values": [{"measurement": "binding result", "value": "binds"}]}
